Patent US9695461B2, “Method for adapting a hydrolytic enzyme to a component that stabilizes the hydrolytic enzyme” (Henkel AG & Co. KGaA, priority 2011, dated 2017)
Positions count from the first letter of the chain named. Names may count otherwise.

B1: S166: protease according to SEQ ID NO: 3 used as the hydrolytic enzyme (starting enzyme) (protein, listed as Bacillus lentus)
chain: AQSVPWGISRVQAPAAHNRGLTGSGVKVAVLDTGISTHPDLNIRGGASFVPGEPSTQDGNGHGTHVAGTIAALNNSIGVLGVAPSAELYAVKVLGADGEGAISSIAQGLEWAGNNGMHVANLSLGSPSPSATLEQAVNSATSRGVLVVAASGNSGASSISYPARYANAMAVGATDQNNNRASFSQYGAGLDIVAPGVNVQSTYPGSTYASLNGTSMATPHVAGAAALVKQKNPSWSNVQIRNHLKNTATSLGSTNLYGSGLVNAEAATR
B2: S166G/Q191R: protease of SEQ ID NO: 3 with amino acid substitutions S166G and Q191R in the count according to SEQ ID NO: 1 (protein, listed as Bacillus lentus)
chain: B1 chain with S160G, Q185R
B3: S166V: protease of SEQ ID NO: 3 with amino acid substitution S166V in the count according to SEQ ID NO: 1 (protein, listed as Bacillus lentus)
chain: B1 chain with S160V

Experiments:
[1] = test system: protease according to SEQ ID NO: 3; assay: Inhibition measurements in the biochemical test (Example 2); conditions: 0.1 M Tris/HCl pH 8.6 with Brij35, suc-AAPF-pNA
Method: The variants S166V and S166G/Q191R as well as the starting enzyme according to SEQ ID NO: 3 were expressed in a suitable expression system, further purified by means of ion exchange chromatography and prepared for the activity determinations in 0.1 M Tris/HCl buffer pH 8.6, comprising Brij35. To the formulations were added increased amounts of the reversible inhibitor 3-HPBA or BMA (see Tables 3 and 4) and the proteolytic residual activity of the respective protease was determined from the release of the chromophore para-nitroaniline (pNA) from the substrate suc-L-Ala-L-Ala-L-Pro-L-Phe-p-nitroanilide (suc-AAPF-pNA) as described above.

[2] = test system: protease according to SEQ ID NO: 3; assay: Relative proteolytic activity with reversible inhibitor in liquid surfactant preparation (Example 1); type: biochemical; conditions: 50% conc. surfactant preparation, 0.92 mM AAPF, 25° C., pH 8.6, relative to same protease without inhibitor; for relative activity, 3-HPBA: 3-HPBA in amount inhibiting starting enzyme by 20-40%; for relative activity, 4-FPBA: 4-FPBA in amount inhibiting starting enzyme by 20-40%; for relative activity, Boric acid: boric acid in amount inhibiting starting enzyme by 20-40%; for relative activity, BMA: benzylmalonic acid in amount inhibiting starting enzyme by 20-40%
Description: The relative activity to be determined in process step c) of the hydrolytic enzyme modified in process step b) is given by [measured activity of the hydrolytic enzyme modified in process step b) in the presence of the component that stabilizes the hydrolytic enzyme] divided by [measured activity of the hydrolytic enzyme modified in process step b) in the absence of the component that stabilizes the hydrolytic enzyme] multiplied by 100.
The relative activity of the starting enzyme to be determined in process step c) is given by [measured activity of the starting enzyme in the presence of the component that stabilizes the hydrolytic enzyme] divided by [measured activity of the starting enzyme in the absence of the component that stabilizes the hydrolytic enzyme] multiplied by 100.
The nucleic acid sequence of the hydrolytic enzyme present on a plasmid was modified individually or in combination as indicated in Tables 1 and 2 using site directed mutagenesis by means of specific, adapted primers using a Phusion Hot Start Polymerase at the positions S166, A187, F189 or Q191 in the counting according to SEQ ID NO: 1, and the resulting variants were transformed into a suitable host. Active clones were selected by means of a protease-sensitive medium and the DNA sequence was sequenced after isolation of the plasmid for identification purposes. The modified proteases were expressed in the Bacillus host and prepared for the activity determination.
The activity was determined in a liquid preparation that was constituted as follows (all data in wt %): 0.3-0.5% xanthan, 0.2-0.4% defoamer, 6-7% glycerin, 0.3-0.5% ethanol, 4-7% FAEOS (fatty alcohol ether sulfate), 24-28% non-ionic surfactants, 1-2% sodium citrate (dihydrate), 2-4% soda, 14-16% cocoanut fatty acids, 0.5% HEDP (1-hydroxyethane-(1,1-diphosphonic acid)), 0-0.4% PVP (polyvinyl pyrrolidone) 0-0.5% optical brightener, 0-0.001% % colorant, the remainder being demineralized water.
To a 50% conc. liquid preparation of the liquid surfactant preparation were added 0.92 mM AAPF. The reversible inhibitor to be tested was also comprised in the required amount to inhibit the starting enzyme by 20-40%. 20 μl of the respective protease (starting enzyme as well as modified protease variants) were added and the proteolytic activity determined from the release of the chromophore para-nitroaniline (pNA) from the substrate suc-L-Ala-L-Ala-L-Pro-L-Phe-p-nitroanilide (suc-AAPF-pNA). The protease cleaves the substrate and releases pNA. The released pNA causes the extinction at 410 nm to increase; the change in extinction as a function of time is a measure of the enzymatic activity (see Del Mar et al., 1979). The measurement was carried out at a temperature of 25° C., at pH 8.6 and a wavelength of 410 nm.
The measured activity was compared with the activity of a reference formulation of the same protease sample without inhibitor and the respective relative activities of the modified proteases and the starting enzyme were determined. […] The results are presented in the following Tables 1 and 2 (the relative activities are each given).

Molecule	proteolytic residual activity, 3-HPBA ([1]; 3-HPBA 0.05 mM) [%]	proteolytic residual activity, 3-HPBA ([1]; 3-HPBA 0.1 mM) [%]	proteolytic residual activity, 3-HPBA ([1]; 3-HPBA 0.5 mM) [%]	proteolytic residual activity, 3-HPBA ([1]; 3-HPBA 1 mM) [%]	proteolytic residual activity, 3-HPBA ([1]; 3-HPBA 1.5 mM) [%]	proteolytic residual activity, BMA ([1]; BMA 0.05 Gew.-%) [%]	proteolytic residual activity, BMA ([1]; BMA 0.5 Gew.-%) [%]	proteolytic residual activity, BMA ([1]; BMA 1.0 Gew.-%) [%]	proteolytic residual activity, BMA ([1]; BMA 1.7 Gew.-%) [%]	proteolytic residual activity, BMA ([1]; BMA 2.5 Gew.-%) [%]	proteolytic residual activity, BMA ([1]; BMA 3.3 Gew.-%) [%]	proteolytic residual activity, BMA ([1]; BMA 4.0 Gew.-%) [%]	proteolytic residual activity, BMA ([1]; BMA 5.0 Gew.-%) [%]	relative activity, 3-HPBA ([2]; Table 1) [%]	relative activity, 4-FPBA ([2]; Table 1) [%]	relative activity, Boric acid ([2]; Table 1) [%]	relative activity, BMA ([2]; Table 2) [%]	relative activity, Boric acid ([2]; Table 2) [%]
B1	93	89	81	65	56	96	95	93	94	74	73	78	64	83	75	83	81	79
B2	–	–	–	–	–	88	55	42	35	38	32	36	32	–	–	–	35	57
B3	84	87	65	51	40	–	–	–	–	–	–	–	–	53	71	59	–	–
